From the supplement of paper PMC10724198
± gives the standard deviation of the averaged measurements.

Assays:
Saccharomyces cerevisiae [1] = experiment: protein stability index of tFT-peptide fusion (C-terminal peptide) (PSI (0-1 scale)); higher = more stable (slower turnover); details: genetic background: wild type; temperature: 30 C
Saccharomyces cerevisiae [2] = experiment: as above
Method: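 MPS profiling in S. cerevisiae of the tFT-X12 degron library: putative degron peptides plus stable controls, 12 aa, fused to the C-terminus of a sfGFP-mCherry timer. Cells are FACS-sorted into 8 mCherry/sfGFP bins and deep-sequenced. PSI runs from 0 (unstable) to 1 (stable). Backgrounds are wild type, das1Δ and doa10Δ at 30 °C, and wild type, das1Δ, cdc34-1 and cdc53-1 at 37 °C; 2-3 technical replicates each.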

[3] = genetic background: cdc34-1, temperature: 37 C
[4] = genetic background: cdc53-1, temperature: 37 C
[5] = genetic background: das1 deletion, temperature: 30 C
[6] = genetic background: das1 deletion, temperature: 37 C
[7] = genetic background: doa10 deletion, temperature: 30 C
[8] = genetic background: wild type, temperature: 30 C
[9] = genetic background: wild type, temperature: 37 C
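Further: PSI is a weighted mean of sequencing reads over stability bins, variants kept only with over 10 reads, mCherry proximal and sfGFP distal, peptide attached via GGGS linker.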

Row | Sequence | protein stability index (Saccharomyces cerevisiae [1]) | protein stability index (Saccharomyces cerevisiae [2]; [3]) | protein stability index (Saccharomyces cerevisiae [2]; [4]) | protein stability index (Saccharomyces cerevisiae [2]; [5]) | protein stability index (Saccharomyces cerevisiae [2]; [6]) | protein stability index (Saccharomyces cerevisiae [2]; [7]) | protein stability index (Saccharomyces cerevisiae [2]; [8]) | protein stability index (Saccharomyces cerevisiae [2]; [9])
1 | ILLHSFFSFYLL | 0.30744 ± 1.3e-05 | 0.484 ± 0.0054 | 0.503 ± 0.0068 | 0.508 ± 0.027 | 0.5933 ± 0.0054 | 0.289 ± 0.009 | 0.269 ± 0.023 | 0.419 ± 0.006
2 | ILLYCVLIDPYS | 0.344 ± 0.032 | 0.203 ± 0.008 | 0.2634 ± 0.0013 | 0.221 ± 0.043 | 0.352 ± 0.0093 | 0.219 ± 0.011 | 0.229 ± 0.025 | 0.361 ± 0.057
3 | ILVLKFLRLLSA | 0.448 ± 0.031 | 0.525 ± 0.015 | 0.555 ± 0.024 | 0.444 ± 0.034 | 0.563 ± 0.012 | 0.343 ± 0.017 | 0.365 ± 0.028 | 0.5261 ± 0.0015
4 | ISPCLVRLWYRI | 0.175 ± 0.033 | 0.462 ± 0.053 | 0.574 ± 0.021 | 0.544 ± 0.018 | 0.673 ± 0.019 | 0.103 ± 0.028 | 0.102 ± 0.037 | 0.168 ± 0.026
5 | IVCYFFAFSFMW | 0.362 ± 0.0046 | 0.288 ± 0.014 | 0.399 ± 0.058 | 0.293 ± 0.028 | 0.462 ± 0.0081 | 0.2859 ± 0.0019 | 0.288 ± 0.025 | 0.425 ± 0.024
6 | IVEVNCILMWIF | 0.4398 ± 0.00029 | 0.423 ± 0.024 | 0.489 ± 0.026 | 0.365 ± 0.021 | 0.532 ± 0.029 | 0.345 ± 0.037 | 0.369 ± 0.041 | 0.469 ± 0.044
7 | IVGVLAVLVRPV | 0.466 ± 0.023 | 0.484 ± 0.029 | 0.561 ± 0.019 | 0.369 ± 0.03 | 0.5371 ± 0.0051 | 0.34 ± 0.011 | 0.376 ± 0.023 | 0.51 ± 0.017
8 | IVIFQTAYVVRI | 0.213 ± 0.0041 | 0.159 ± 0.0011 | 0.233 ± 0.013 | 0.164 ± 0.011 | 0.238 ± 0.012 | 0.225 ± 0.034 | 0.173 ± 0.0086 | 0.234 ± 0.01
9 | IVVVVRLSPILG | 0.331 ± 0.034 | 0.293 ± 0.016 | 0.397 ± 0.099 | 0.27 ± 0.015 | 0.4272 ± 0.003 | 0.228 ± 0.013 | 0.274 ± 0.016 | 0.401 ± 0.011
10 | IWIHSVGVECTS | 0.486 ± 0.019 | 0.487 ± 0.011 | 0.494 ± 0.033 | 0.359 ± 0.036 | 0.544 ± 0.0068 | 0.315 ± 0.0044 | 0.358 ± 0.032 | 0.5186 ± 0.005
11 | IWYGLFWLRFWV | 0.51 ± 0.055 | 0.513 ± 0.044 | 0.572 ± 0.018 | 0.497 ± 0.018 | 0.586 ± 0.015 | 0.444 ± 0.018 | 0.423 ± 0.023 | 0.5368 ± 0.0047
12 | IYNIIFKYRTIT | 0.127 ± 0.084 | 0.525 ± 0.036 | 0.581 ± 0.014 | 0.575 ± 0.0086 | 0.661 ± 0.073 | 0.0671 ± 0.0022 | 0.0987 ± 0.019 | 0.118 ± 0.016
13 | KCWSGTVMVRLG | 0.34 ± 0.0068 | 0.675 ± 0.062 | 0.72 ± 0.017 | 0.596 ± 0.013 | 0.723 ± 0.032 | 0.164 ± 0.0099 | 0.191 ± 0.036 | 0.4516 ± 0.0042
14 | KERHRNKRKQIA | 0.342 ± 0.038 | 0.659 ± 0.011 | 0.741 ± 0.021 | 0.66 ± 0.022 | 0.7046 ± 0.004 | 0.173 ± 0.0077 | 0.205 ± 0.035 | 0.43 ± 0.046
15 | KERNKISQRKLT | 0.434 ± 0.024 | 0.65 ± 0.009 | 0.654 ± 0.034 | 0.666 ± 0.015 | 0.714 ± 0.028 | 0.143 ± 0.023 | 0.185 ± 0.018 | 0.416 ± 0.013
16 | KFKRLTKFYARQ | 0.311 ± 0.0089 | 0.555 ± 0.031 | 0.684 ± 0.029 | 0.676 ± 0.032 | 0.618 ± 0.011 | 0.108 ± 0.0012 | 0.132 ± 0.027 | 0.334 ± 0.017
17 | KHKIIGKYQRQI | 0.46 ± 0.021 | 0.704 ± 0.13 | 0.751 ± 0.02 | 0.629 ± 0.033 | 0.7236 ± 0.0012 | 0.319 ± 0.017 | 0.338 ± 0.017 | 0.576 ± 0.015
18 | KIIKERIRRIKI | 0.243 ± 0.032 | 0.653 ± 0.013 | 0.632 ± 0.1 | 0.591 ± 0.032 | 0.71254 ± 0.0005 | 0.153 ± 0.0034 | 0.181 ± 0.049 | 0.286 ± 0.076
19 | KIRGYLMPLTLL | 0.503 ± 0.037 | 0.56 ± 0.037 | 0.6 ± 0.0051 | 0.557 ± 0.027 | 0.709 ± 0.014 | 0.4659 ± 0.0027 | 0.432 ± 0.0072 | 0.548 ± 0.028
20 | KKKKNIKIKKQI | 0.276 ± 0.054 | 0.74 ± 0.17 |  | 0.646 ± 0.034 | 0.711 ± 0.084 | 0.184 ± 0.025 | 0.215 ± 0.023 | 0.336 ± 0.12

Row | Sequence | protein stability index (Saccharomyces cerevisiae [1]) | protein stability index (Saccharomyces cerevisiae [2]; [3]) | protein stability index (Saccharomyces cerevisiae [2]; [4]) | protein stability index (Saccharomyces cerevisiae [2]; [5]) | protein stability index (Saccharomyces cerevisiae [2]; [6]) | protein stability index (Saccharomyces cerevisiae [2]; [7]) | protein stability index (Saccharomyces cerevisiae [2]; [8]) | protein stability index (Saccharomyces cerevisiae [2]; [9])
21 | KLKTSHILIKQT | 0.3668 ± 0.0036 | 0.665 ± 0.059 | 0.729 ± 0.0099 | 0.606 ± 0.029 | 0.716 ± 0.024 | 0.1562 ± 0.0013 | 0.223 ± 0.033 | 0.452 ± 0.011
22 | KLSLRYLLVSLI | 0.188 ± 0.049 | 0.513 ± 0.013 | 0.602 ± 0.045 | 0.456 ± 0.018 | 0.606 ± 0.011 | 0.101 ± 0.0044 | 0.115 ± 0.025 | 0.153 ± 0.012
23 | KMIVWKESIKRE | 0.535 ± 0.15 | 0.689 ± 0.065 | 0.7388 ± 0.001 | 0.633 ± 0.029 | 0.723 ± 0.015 | 0.63 ± 0.014 | 0.667 ± 0.069 | 0.693 ± 0.022
24 | KNGNVEILIKCT | 0.4881 ± 0.0027 | 0.625 ± 0.081 | 0.6278 ± 0.0034 | 0.485 ± 0.018 | 0.631 ± 0.0084 | 0.377 ± 0.022 | 0.425 ± 0.034 | 0.58 ± 0.018
25 | KRNLLYNIIVWI | 0.299 ± 0.046 | 0.404 ± 0.024 | 0.476 ± 0.051 | 0.357 ± 0.025 | 0.524 ± 0.021 | 0.171 ± 0.0049 | 0.179 ± 0.016 | 0.288 ± 0.0061
26 | KTSVLLCVSTSF | 0.441 ± 0.019 | 0.633 ± 0.0073 | 0.645 ± 0.021 | 0.427 ± 0.018 | 0.628 ± 0.015 | 0.442 ± 0.046 | 0.443 ± 0.016 | 0.628 ± 0.015
27 | LAINVRRELLFF | 0.235 ± 0.043 | 0.613 ± 0.0093 | 0.723 ± 0.021 | 0.643 ± 0.029 | 0.7665 ± 0.007 | 0.134 ± 0.001 | 0.148 ± 0.032 | 0.235 ± 0.007
28 | LARRASCFWVRC | 0.452 ± 0.0072 | 0.671 ± 0.015 | 0.721 ± 0.011 | 0.633 ± 0.026 | 0.71798 ± 0.00063 | 0.251 ± 0.019 | 0.303 ± 0.017 | 0.559 ± 0.011
29 | LAVVCIHAVSSF | 0.418 ± 0.077 | 0.51 ± 0.042 | 0.538 ± 0.069 | 0.352 ± 0.018 | 0.533 ± 0.0038 | 0.333 ± 0.02 | 0.373 ± 0.042 | 0.518 ± 0.038
30 | LCAFLKLFILII | 0.239 ± 0.016 | 0.0906 ± 0.018 | 0.141 ± 0.076 | 0.181 ± 0.051 | 0.325 ± 0.017 | 0.235 ± 0.027 | 0.141 ± 0.045 | 0.23 ± 0.034
31 | LCARVCITFNIV | 0.457 ± 0.016 | 0.517 ± 0.033 | 0.578 ± 0.054 | 0.458 ± 0.013 | 0.4975 ± 0.0038 | 0.4011 ± 0.004 | 0.438 ± 0.035 | 0.481 ± 0.014
32 | LCWLVHFFLWVS | 0.288 ± 0.018 | 0.35 ± 0.081 | 0.431 ± 0.0079 | 0.312 ± 0.024 | 0.442 ± 0.023 | 0.253 ± 0.013 | 0.238 ± 0.017 | 0.393 ± 0.0092
33 | LESYGLRDSTSG | 0.621 ± 0.27 | 0.641 ± 0.05 | 0.651 ± 0.032 | 0.638 ± 0.099 | 0.741 ± 0.042 | 0.65 ± 0.0099 | 0.681 ± 0.044 | 0.69 ± 0.018
34 | LFCVCFYGRIFL | 0.423 ± 0.0066 | 0.443 ± 0.017 | 0.556 ± 0.038 | 0.335 ± 0.028 | 0.526 ± 0.018 | 0.328 ± 0.018 | 0.334 ± 0.022 | 0.5 ± 0.011
35 | LFFCYRVFLLVF | 0.185 ± 0.019 | 0.132 ± 0.01 | 0.152 ± 0.0027 | 0.199 ± 0.023 | 0.243 ± 0.006 | 0.121 ± 0.016 | 0.106 ± 0.026 | 0.1719 ± 0.00093
36 | LFFGFFLIYFLG | 0.353 ± 0.044 | 0.428 ± 0.048 | 0.4839 ± 0.0013 | 0.384 ± 0.034 | 0.495 ± 0.0074 | 0.266 ± 0.014 | 0.278 ± 0.018 | 0.424 ± 0.032
37 | LFFVVFFLLFLL | 0.411 ± 0.025 | 0.402 ± 0.0091 | 0.446 ± 0.028 | 0.36 ± 0.026 | 0.477 ± 0.029 | 0.389 ± 0.0099 | 0.337 ± 0.023 | 0.453 ± 0.026
38 | LFFWFMYLRRLI | 0.172 ± 0.033 | 0.252 ± 0.019 | 0.238 ± 0.0044 | 0.403 ± 0.041 | 0.524 ± 0.11 | 0.22 ± 0.0085 | 0.151 ± 0.01 | 0.164 ± 0.0084
39 | LFHSFFLYCLMS | 0.482 ± 0.015 | 0.56 ± 0.017 | 0.5796 ± 0.0031 | 0.616 ± 0.042 | 0.662 ± 0.04 | 0.5838 ± 0.0054 | 0.541 ± 0.022 | 0.6 ± 0.045
